Laboratory results as given in publication PMC3499403 (PLoS Neglected Tropical Diseases, 2012).

What was measured:
[1] = biological target: T1, soluble form of the Variant-specific Surface Glycoprotein (sVSG) of T. b. brucei AnTat1.1 (Trypanosoma brucei brucei AnTat1.1, UniProt P06015); assay: SPR; BIAcore T100; 1000-1500 RU soluble AnTat1.1 VSG amine-coupled on a CM5 chip; Nanobody 500 to 7.8 nM at 30 µl/min in HBS (10 mM Hepes pH 7.5, 150 mM NaCl, 3.5 mM EDTA, 0.005% Tween-20); 1:1 binding model with local Rmax; details: both partners purified
T1 construct: Variant-specific Surface Glycoprotein (VSG) of Trypanosoma brucei brucei AnTat1.1, soluble form (sVSG); Glycoprotein; amine-coupled to a CM5 chip for SPR; also called AnTat1.1 sVSG; soluble AnTat1.1 VSG

[2] = biological target: T1, soluble form of the Variant-specific …; assay: as above; details: both partners purified; remark: listed apart in the source
[3] = biological target: T2, Variant-specific Surface Glycoprotein (VSG) on live bloodstream form T. b. brucei AnTat1.1 (Trypanosoma brucei brucei AnTat1.1, UniProt P06015); assay: cell-based or functional assay
[4] = biological target: T2, Variant-specific Surface Glycoprotein …; assay: cell-based or functional assay; remark: listed apart in the source
[5] = biological target: T3, Variant-specific Surface Glycoprotein (VSG) on live bloodstream form T. b. brucei AnTat1.1 (Trypanosoma brucei brucei AnTat1.1 (endogenous in the parasites)) (UniProt P06015)
T3 sequence: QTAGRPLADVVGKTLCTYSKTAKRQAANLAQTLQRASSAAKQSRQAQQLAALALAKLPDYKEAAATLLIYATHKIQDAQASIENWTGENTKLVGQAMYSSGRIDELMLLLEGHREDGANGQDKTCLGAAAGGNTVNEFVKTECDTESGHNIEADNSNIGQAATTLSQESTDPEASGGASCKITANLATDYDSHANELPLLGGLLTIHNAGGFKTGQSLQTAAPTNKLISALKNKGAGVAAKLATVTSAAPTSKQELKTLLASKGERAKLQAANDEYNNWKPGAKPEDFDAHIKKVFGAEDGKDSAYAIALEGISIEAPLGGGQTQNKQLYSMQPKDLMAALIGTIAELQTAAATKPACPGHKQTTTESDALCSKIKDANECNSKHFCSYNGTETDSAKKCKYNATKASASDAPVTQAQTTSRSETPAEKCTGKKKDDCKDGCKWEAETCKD

[6] = biological target: T1, soluble form of the Variant-specific …; assay: SPR; BIAcore T100; 1000-1500 RU soluble AnTat1.1 VSG amine-coupled on a CM5 chip; Nanobody 500 to 7.8 nM at 30 µl/min in HBS (10 mM Hepes pH 7.5, 150 mM NaCl, 3.5 mM EDTA, 0.005% Tween-20); 1:1 binding model with local Rmax; details: both partners purified; remark: listed apart in the source
[7] = biological target: T2, Variant-specific Surface Glycoprotein …; assay: cell-based or functional assay; remark: listed apart in the source

B1: Nb_An-R3.68 (VHH)
VHH: QVQLQESGGGLVQPGGSLRLSCAASGGTLSYYAVGWFRQAPGKEREAVSSIRSGGGITVYADSVKGRFTISRDNKKNTVYLQMNGLKPEDTAVYYCAAGLWRWPDHNMLVSGNYDYWGQGTQVTVSS
notes: From the alpaca sVSG-immune library, cloned in pMES; source: E. coli WK6, purified (Ni-NTA, Superdex 75 gel filtration)
B1 was tested, and the Kd [1] was 12 nM, the Kd [2] was 9 nM and the “trypanotoxic activity (% relative to a non-trypanosome specific Nb), 10 and 20 µg/ml Nb, 18 h, 37°C; value at 20 µg/ml” value [3] was > 95%.

B2: Nb_An-R4.11 (VHH)
VHH: QVQLQESGGGLVQPGGSLRLSCEGSGFILGYYTIGWFRQAPGKEREGVSCMNSSGRTKYADSVKGRFTISRDNAKNTVYLQMNSLKPEDRAVYFCAADLINLCDSSWLRDGMNYWGKGTQVTVSS
notes: as for B1
With B2 the Kd [1] was 35 nM and the “trypanotoxic activity (% relative to a non-trypanosome specific Nb), 10 µg/ml Nb, 18 h, 37°C, HMI-9/10% FBS” value [4] was > 80%.

B3: Nb_An-R3.7 (VHH)
VHH: QVQLQESGGGLVQPGGSLRLSCEASGFILGYYTIGWIRQAPGKEREGVICITSAGGRTNYADSVKGRFTISRDNAKNTVYLQMNSLKPEDTAVYYCAADLINLCDSSWLRDGMNYWGKGTQVTVSS
notes: as for B1
In the case of B3, the Kd [1] is reported as 5 nM and the “trypanotoxic activity (% relative to a non-trypanosome specific Nb), 10 µg/ml Nb, 18 h, 37°C, HMI-9/10% FBS” value [4] is reported as > 80%.

B4: Nb_An-R4.29 (VHH)
VHH: QVQLQESGGGLVQPGGSLRLSCEASGFILGYYTIGWFRQAPGKEREGVSCINSSPGTTNYADSVKGRFTISRDNAKNTVYLQMNSLKPEDTAVYYCAADLINLCDSTWVRDGMNFWGKGTQVTVSS
notes: as for B1
With B4 the Kd [1] was 5 nM and the “trypanotoxic activity (% relative to a non-trypanosome specific Nb), 10 µg/ml Nb, 18 h, 37°C, HMI-9/10% FBS” value [4] was > 80%.

B5: Nb_An-R3.92 (VHH)
VHH: QVQLQESGGGLVQAGGSLRLSCEASGFILGYYTIGWFRQAPGKEREGVLCISSAGGRTNYADSVKGRFTISRDNAKNTVYLQMNSLKPEDTAVYYCAADLINLCDSSWWRDGMNYWGKGTQVTVSS
notes: as for B1
B5 was tested, and the Kd [1] was 11 nM and the “trypanotoxic activity (% relative to a non-trypanosome specific Nb), 10 µg/ml Nb, 18 h, 37°C, HMI-9/10% FBS” value [4] was > 80%.

B6: Nb_An-R4.55 (VHH)
VHH: QVQLQESGGGLVQPGGSLRLSCEASGFILGYYTIGWIRQAPGKEREGVICITSAGGRTNYADSVKGRFTISRDNAKNTVYLQMNSLKPEDTAVYYCAADLINLCDSSWLQDGMNYWGKGTQVTVSS
notes: as for B1
In the case of B6, the Kd [1] is reported as 5 nM and the “trypanotoxic activity (% relative to a non-trypanosome specific Nb), 10 µg/ml Nb, 18 h, 37°C, HMI-9/10% FBS” value [4] is reported as > 80%.

B7: Nb_An-R4.80 (VHH)
VHH: QVQLQESGGGLVQPGGSLRLSCEASGFILGYYTIGWIRQAPGKEREGVICITSAGGRTNYADSVKGRFTISRDNAKNTVYLQMNSLKPEDTAVYYCAADLTNLCDSSWLRDGMNYWGKGTQVTVSS
notes: as for B1
For B7, the Kd [1] was 6 nM and the “trypanotoxic activity (% relative to a non-trypanosome specific Nb), 10 µg/ml Nb, 18 h, 37°C, HMI-9/10% FBS” value [4] was > 80%.

B8: Nb_An-R4.71 (VHH)
VHH: QVQLQESGGGLVQPGGSLRLSCAASGFILNYATIAWFRQAPGKEREGVSCISSAFNTNYADSVKGRFAISRDNAKNTVYLQMNSLKPEDTAVYYCAATFGGTSYCSLRPDSSVPYDTWGQGTQVTVSS
notes: as for B1
In the case of B8, the Kd [1] is reported as 7 nM and the “trypanotoxic activity (% relative to a non-trypanosome specific Nb), 10 µg/ml Nb, 18 h, 37°C, HMI-9/10% FBS” value [4] is reported as > 80%.

B9: Nb_An33hum1 (VHH)
VHH: DVQLVESGGGSVQAGGSLRLSCAVSGSTYSPCTTGWVRQAPGKEREWVSSISSPGTIYYQDSVKGRFTISRDNAKNTVYLQMNSLQREDTGMYYCQIQCGVRSIREYWGQGTQVTVSS
For B9, the Trypanotoxic activity (%), 18 h incubation at 37°C with 20 µg/ml Nb [5] was 0%, the Kd [6] was 1100 nM and the koff [6] was 0.264 s⁻¹. For the same binder, the kon [6] was 243000 M⁻¹ s⁻¹.

B10: Nb_An33hum3 (VHH)
VHH: DVQLVESGGGSVQAGGSLRLSCAVSGSTYSPCTTGWYRQAPGKGLEWVSSISSPGTIYYQDSVKGRFTISRDNAKNTVYLQMNSLQREDTGMYYCQIQCGVRSIREYWGQGTQVTVSS
B10 gave a Trypanotoxic activity (%), 18 h incubation at 37°C with 20 µg/ml Nb [5] of 57%, a Kd [6] of 23.5 nM and a koff [6] of 0.016 s⁻¹. The kon [6] was 702000 M⁻¹ s⁻¹.

B11: Nb_An33hum2 (VHH)
VHH: DVQLVESGGGSVQAGGSLRLSCAVSGSTYSPCTTGWVRQAPGKGLEWVSSISSPGTIYYQDSVKGRFTISRDNAKNTVYLQMNSLQREDTGMYYCQIQCGVRSIREYWGQGTQVTVSS
In the case of B11, the Trypanotoxic activity (%), 18 h incubation at 37°C with 20 µg/ml Nb [5] is reported as 0%, the Kd [6] is reported as 540 nM and the koff [6] is reported as 0.15 s⁻¹. The kon [6] was 291000 M⁻¹ s⁻¹.

B12: Nanobody 33 (Nb_An33), wildtype (VHH)
VHH: DVQLVESGGGSVQAGGSLRLSCAVSGSTYSPCTTGWYRQAPGKEREWVSSISSPGTIYYQDSVKGRFTISRDNAKNTVYLQMNSLQREDTGMYYCQIQCGVRSIREYWGQGTQVTVSS
Work on B12 yielded a Trypanotoxic activity (%), 18 h incubation at 37°C with 20 µg/ml Nb [5] of 73%, a Kd [6] of 28 nM and a koff [6] of 0.021 s⁻¹. For the same binder, the kon [6] was 741000 M⁻¹ s⁻¹.

B13: Nb_An33mut3 (VHH)
VHH: DVQLVESGGGSVQAGGSLRLSCAVSGSTYSPCTTGWYRQAPGKEREWVSSISSPGTIYYQDSVKGRFTISRDNAKNTVYLQMNSLQREDTGMYYCQIQCGNDCILEYWGQGTQVTVSS
notes: Conjugated with Alexa Fluor 488 for flow cytometry; source: E. coli WK6, purified (Ni-NTA, Superdex 75 gel filtration)
B13 was tested, and the “Trypanotoxic activity (%), 18 h incubation at 37°C with 20 µg/ml Nb” value (“Trypanotoxic activity (%)” for short) [7] was 24%, the Kd [6] was 197 nM and the koff [6] was 0.066 s⁻¹. The kon [6] was 336000 M⁻¹ s⁻¹.

B14: Nb_An33mut1 (VHH)
VHH: DVQLVESGGGSVQAGGSLRLSCAVSGRALSPCTTGWYRQAPGKEREWVSSISSPGTIYYQDSVKGRFTISRDNAKNTVYLQMNSLQREDTGMYYCQIQCGVRSIREYWGQGTQVTVSS
notes: as for B13
B14 was tested, and the “Trypanotoxic activity (%)” value [7] was 33%, the Kd [6] was 89 nM and the koff [6] was 0.042 s⁻¹. It also gave a kon [6] of 467000 M⁻¹ s⁻¹.

B15: Nb_An33mut2 (VHH)
VHH: DVQLVESGGGSVQAGGSLRLSCAVSGSTYSPCTTGWYRQAPGKEREWVSSISSPGTIYYQDSVKGRFTISRDNAKNTVYLQMNSLQREDTGMYYCQIQCGFVNINEYWGQGTQVTVSS
notes: as for B13
B15 was tested, and the “Trypanotoxic activity (%)” value [7] was 4%, the Kd [6] was 723 nM and the koff [6] was 0.227 s⁻¹. For the same binder, the kon [6] was 314000 M⁻¹ s⁻¹.
